PMC7948472
Where two headings read alike, the source gives them in different places. Where no end group is shown, it is not given here. Me3 = trimethyl-lysine

Assays:
Fab C9 (rabbit) [1] = assay: SPR; Biacore T200; each Fab immobilised on a CM5 chip by amine coupling; peptides injected at increasing concentrations; running buffer PBS with 0.005% Tween 20; global fitting of the curves, or steady-state analysis where kinetic parameters could not be determined (fast dissociation, low affinity)
Fab D6 (rabbit) [2] = assay: as above
Fab D6 (rabbit), sequence (heavy, as listed by the source, chain 1 of 2): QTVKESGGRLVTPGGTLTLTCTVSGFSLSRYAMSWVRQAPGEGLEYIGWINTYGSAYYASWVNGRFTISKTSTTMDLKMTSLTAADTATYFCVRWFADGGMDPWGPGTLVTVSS
Fab D6 (rabbit), sequence (light, as listed by the source, chain 2 of 2): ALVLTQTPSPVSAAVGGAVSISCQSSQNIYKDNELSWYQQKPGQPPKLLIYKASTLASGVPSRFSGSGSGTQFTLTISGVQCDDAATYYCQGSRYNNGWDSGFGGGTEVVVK

Fab E10 (rabbit) [3] = assay: as above
Fab C9 (rabbit) [4] = assay: as above; remark: listed apart in the source
Fab D6 (rabbit) [5] = assay: as above; remark: listed apart in the source
Fab E10 (rabbit) [6] = assay: as above; remark: listed apart in the source
F9, C9, E6, and D6 = assay: SPR; Biacore T200; each Fab immobilised on a CM5 chip by amine coupling; increasing concentrations of free peptide injected; running buffer PBS with 0.005% Tween 20; global fit, steady-state analysis where dissociation was fast
Fab F9 (rabbit) = assay: SPR; Biacore T200; each Fab immobilised on a CM5 chip by amine coupling; peptides injected at increasing concentrations; running buffer PBS with 0.005% Tween 20; global fitting of the curves, or steady-state analysis where kinetic parameters could not be determined (fast dissociation, low affinity)
Fab F9 (rabbit), sequence (heavy, as listed by the source, chain 1 of 2): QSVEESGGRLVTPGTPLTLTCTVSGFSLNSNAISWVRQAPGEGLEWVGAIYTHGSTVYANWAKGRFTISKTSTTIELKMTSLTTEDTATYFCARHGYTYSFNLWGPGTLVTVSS
Fab F9 (rabbit), sequence (light, as listed by the source, chain 2 of 2): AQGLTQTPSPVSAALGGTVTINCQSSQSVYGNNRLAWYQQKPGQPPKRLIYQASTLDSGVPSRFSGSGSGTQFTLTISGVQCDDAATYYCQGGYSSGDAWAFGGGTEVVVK

Fab E6 (rabbit) = assay: as above
Fab E6 (rabbit), sequence (heavy, as listed by the source, chain 1 of 2): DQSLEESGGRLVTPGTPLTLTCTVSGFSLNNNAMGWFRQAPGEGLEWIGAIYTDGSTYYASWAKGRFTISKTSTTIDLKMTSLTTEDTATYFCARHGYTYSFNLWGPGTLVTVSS
Fab E6 (rabbit), sequence (light, as listed by the source, chain 2 of 2): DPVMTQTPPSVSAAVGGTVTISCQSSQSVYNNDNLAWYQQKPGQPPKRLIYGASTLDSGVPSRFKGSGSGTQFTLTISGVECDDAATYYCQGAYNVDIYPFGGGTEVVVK

D6 Fab (rabbit) = assay: SPR; Biacore T200; each Fab immobilised on a CM5 chip by amine coupling; increasing concentrations of free peptide injected; running buffer PBS with 0.005% Tween 20; global fit, steady-state analysis where dissociation was fast
E6 Fab (rabbit) = assay: as above
F9 Fab (rabbit) = assay: as above
C9 Fab (rabbit) = assay: as above
C9 Fab (rabbit), sequence (heavy, as listed by the source, chain 1 of 2): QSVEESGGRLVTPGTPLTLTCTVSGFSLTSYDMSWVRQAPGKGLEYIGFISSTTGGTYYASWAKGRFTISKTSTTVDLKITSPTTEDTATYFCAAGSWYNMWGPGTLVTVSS
C9 Fab (rabbit), sequence (light, as listed by the source, chain 2 of 2): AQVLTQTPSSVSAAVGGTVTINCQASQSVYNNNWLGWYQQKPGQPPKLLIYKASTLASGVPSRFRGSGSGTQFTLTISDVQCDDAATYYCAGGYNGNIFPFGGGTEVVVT

Row | Kd (Fab C9 (rabbit) [1]) | Kd (Fab D6 (rabbit) [2]) | Kd (Fab E10 (rabbit) [3]) | Kd (Fab C9 (rabbit) [4]) | Kd (Fab D6 (rabbit) [5]) | Kd (Fab E10 (rabbit) [6]) | Kd (F9, C9, E6, and D6) | koff (Fab C9 (rabbit) [1]) | kon (Fab C9 (rabbit) [1]) | koff (Fab D6 (rabbit) [2]) | kon (Fab D6 (rabbit) [2]) | koff (Fab F9 (rabbit)) | kon (Fab F9 (rabbit)) | koff (Fab E6 (rabbit)) | kon (Fab E6 (rabbit)) | Kd (D6 Fab (rabbit)) | Kd (E6 Fab (rabbit)) | fold difference in association rate constant against F9 (E6 Fab (rabbit)) | Kd (F9 Fab (rabbit)) | Kd (C9 Fab (rabbit)) | Binder
1 | 440 µM | 140 µM | 40 µM | 690 µM | 180 µM | 36 µM | 0.3 µM |  |  |  |  |  |  |  |  |  |  |  |  |  | NPIFEKFGKGGTYP [MAP3K2 peptide, …]
2 |  |  | 37 µM |  |  | 39 µM |  | 0.006 s⁻¹ | 480000 M⁻¹ s⁻¹ | 0.096 s⁻¹ | 1.9e+06 M⁻¹ s⁻¹ | 0.098 s⁻¹ | 330000 M⁻¹ s⁻¹ | 0.0029 s⁻¹ | 3.4e+06 M⁻¹ s⁻¹ | 0.054 µM | 0.0009 µM | > 100 fold | 0.3 µM | 0.014 µM | NPIFEKFGK(Me3)GGTYP [Methylated MAP3K2 peptide, …(me3)GGTYP]
3 | 0.0111 µM | 0.0591 µM |  |  |  |  |  |  |  |  |  |  |  |  |  |  |  |  |  |  | NPIFEKFGK(Me3)GGTYP-NH2 [Methylated MAP3K2 peptide in which the C terminus was amidated]
